Measured values taken from CN109734803A (ZONHON BIOPHARMA INST INC, dated 2019).

T1: 重组人MYO(大肠杆菌重组表达，本公司制备) (human, UniProt P02144 2-154)
T1 construct: The background describes myoglobin as one chain of 153 residues with a haem group; also called 重组MYO; 人肌红蛋白
T1 sequence (looked up): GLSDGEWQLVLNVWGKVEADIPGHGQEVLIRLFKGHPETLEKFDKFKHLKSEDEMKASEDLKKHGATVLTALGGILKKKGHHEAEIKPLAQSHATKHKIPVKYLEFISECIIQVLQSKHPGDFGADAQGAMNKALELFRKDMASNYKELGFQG


Columns and labels:
[1] = biological target: T1, 重组人MYO(大肠杆菌重组表达，本公司制备); experiment: Western blot, recombinant MYO on nitrocellulose, HRP-labelled M26 at 1:1000
[2] = biological target: T1, 重组人MYO(大肠杆菌重组表达，本公司制备); experiment: indirect ELISA, recombinant human MYO coated at 1 μg/mL, hybridoma supernatant, HRP goat anti-mouse IgG
[3] = biological target: T1, 重组人MYO(大肠杆菌重组表达，本公司制备); experiment: Western blot, recombinant MYO on nitrocellulose, HRP-labelled M08 at 1:1000

Row | binding result [2] | Binder | further results
1 | – | 单链抗体M26 (scFv, VH and VL of M26 joined by a (GGGGS)3 linker, expressed in E. coli and purified on HisTrap; HRP-labelled in the Western blot; coated on the T line of the nitrocellulose membrane in the test card; also called M26-scFv; M26-HRP; not shown: Histidine tag introduced downstream of the gene) scFv: QVQLQQSGDDLVKPGASVKLSCKASGYTFTSYWINWIKQRPGQGLEWIGRIAPEGDSTYYNEMFKGKATLTVDTSSSTAYIQLSSLSSEDSAVYFCAREVRNAMDYWGQGTSVTVSSGGGGSGGGGSGGGGSDIQMNQSPSSLSASLGDTITITCHASQNIHVWLSWYLQKPGNITKLLIYEASNLHTGVPSRFSGSGSGTGFTLTISSLQPEDIATYYCQQGQRYPLTFGGGTKLEIK | binding result [1]: binds
2 | binds | 杂交瘤细胞株M26的抗人MYO抗体 (antibody, V domains shown, Mouse hybridoma culture supernatant, detected with HRP goat anti-mouse IgG; also called 抗人肌红蛋白抗体(M26)) VH: QVQLQQSGDDLVKPGASVKLSCKASGYTFTSYWINWIKQRPGQGLEWIGRIAPEGDSTYYNEMFKGKATLTVDTSSSTAYIQLSSLSSEDSAVYFCAREVRNAMDYWGQGTSVTVSS VL: DIQMNQSPSSLSASLGDTITITCHASQNIHVWLSWYLQKPGNITKLLIYEASNLHTGVPSRFSGSGSGTGFTLTISSLQPEDIATYYCQQGQRYPLTFGGGTKLEIK | –
3 | binds | 杂交瘤细胞株M08的抗人MYO抗体 (antibody, V domains shown, Mouse hybridoma culture supernatant, detected with HRP goat anti-mouse IgG; also called 抗人肌红蛋白抗体(M08)) VH: QVQLQQSGAELAKPGASVKMSCKASGYTFTSYWMHWVKQRPGQGLEWIGYIKPNTDYTEYNQKFKDKATLTADKSSSTAYMQLSSLTSEDSAVYYCTRIRGYALDYWGQGTSVTVSS VL: DIVMTQSPSSLTVTAGEKVTMICKSSQSLLNSGNQKNYLTWYQQKPGQPPKLLIYWASTRESGVPDRFTGSGSGTDFTLTISSVQAEDLAVYYCQNDYNFPLTFGAGTKLELK | –
4 | – | 单链抗体M08 (scFv, VH and VL of M08 joined by a (GGGGS)3 linker, expressed in E. coli and purified on HisTrap; HRP-labelled in the Western blot; coupled to time-resolved fluorescent microspheres in the test card; also called M08-scFv; M08-HRP; not shown: Histidine tag introduced downstream of the gene) scFv: QVQLQQSGAELAKPGASVKMSCKASGYTFTSYWMHWVKQRPGQGLEWIGYIKPNTDYTEYNQKFKDKATLTADKSSSTAYMQLSSLTSEDSAVYYCTRIRGYALDYWGQGTSVTVSSGGGGSGGGGSGGGGSDIVMTQSPSSLTVTAGEKVTMICKSSQSLLNSGNQKNYLTWYQQKPGQPPKLLIYWASTRESGVPDRFTGSGSGTDFTLTISSVQAEDLAVYYCQNDYNFPLTFGAGTKLELK | binding result [3]: binds
